Experiment [1] in a line: Intrastriatal NMDA lesion in Iduna transgenic mice. Type of experiment: in vivo, mouse. The settings on record: Iduna transgenic mice vs littermate wild type, intrastriatal NMDA 20 nmoles. From the text:
To determine whether Iduna is protective in vivo, transgenic mice overexpressing Iduna were generated by knocking in Iduna into the ROSA26 genomic locus resulting in a four-fold expression over wild type littermate mice (FIGS. 58-60). NMDA induced lesions are reduced by approximately 80% in the Iduna transgenic mice compared to littermate wild type control animals following an intrastriatal injection of NMDA (20 nmoles) (FIGS. 61 and 62).
Transgenic Mice: ES cells were targeted and screened as described in Soriano et al. Briefly, the pROSA26PA-iduna plasmid was linearized with KpnI and electroporated into ES cells derived from mouse strain 129SvEv. Twelve of 277 G418-resistant colonies had undergone correct homologous recombination, as determined by Southern blot and PCR of the ROSA26-Iduna allele. Two of these ROSA26-Iduna ES clones were injected into C57BL/6 blastocysts. Resulting chimeras were bred to C57BL/6 mice and offspring were tested for germline transmission. Heterozygous mice for the Rosa26PA-Iduna allele were crossed to Nestin-Cre^(+/+) mice (on C57BL/6 background), which were obtained from the Jackson Laboratory, to obtain ROSA26PA-Iduna^(+/loxP)/Nestin-Cre^(−/+) mice. Nestin-cre/ROSA26PA-Iduna transgenic mice, in which Cre recombinase expression is under the control of the nestin promoter, specifically expresses Iduna in brain. […]

Another experiment concerns primary cortical neurons. As to the kind of experiment: NMDA excitotoxicity cell death in primary cortical neurons. Format: cell-based, mouse. The settings on record: NMDA 100 μM for 5 min, Iduna overexpression. As for the experimental part: (§1) Primary Neuronal Culture Preparation: Primary cortical cell cultures were prepared from gestational day 15 mouse embryos as previously described. Experiments were performed at DIV (day in vitro) 14. Under these conditions, neurons represent 90% of the cells in the culture. Mature neurons were washed with control salt solution (CSS) containing 120 mM NaCl, 5.4 mM KCl, 1.8 mM CaCl2, 25 mM Tris-HCl pH 7.4 and 15 mM D-glucose. To induce NMDA-mediated […], 50 μM NMDA and 10 μM glycine in CSS solution was applied to the cells for 5 min, then the cells were washed and re-supplemented with minimum essential medium containing 10% horse serum. […]
(§2) Cell Death Assessment: Following exposure of neuronal cultures to the various treatments neuronal survival was quantified and presented as percent of cell death. Percent cell death was determined as the ratio of live-to-dead cells compared with the percent cell death in control wells to account for cell death attributable to mechanical stimulation of the cultures. Quantification of neuronal survival was determined by staining treated cultures with 5 μM Hoechst 33342 and 2 μM propidium iodide (PI) (Invitrogen, Carlsbad, Calif.). […] The numbers of total and dead (PI positive) cells were counted by automated computer assisted software (Axiovision 4.6, Zeiss, Germany). […]

The subject of a further experiment is cytochrome c. Kind of experiment: Cytochrome c release after NMDA excitotoxicity. Type of experiment: cell-based, mouse. The settings on record: NMDA 500 μM for 5 min, 4 hrs. The procedure:
FIG. 53—Immunoblot showing release of CYT C. Mouse cortical neurons over-expressing GFP, GFP-Iduna or GFP-Iduna-YRAA were subjected to NMDA-excitotoxicity (500 μM for 5 min) on DIV 14. Following subcellular fractionation into mitochondrial and cytosolic (post-mitochondrial) fractions, CYT C release was monitored 4 hrs following NMDA stimulation. COX IV was used as a marker for mitochondria and GAPDH was used a marker for cytosol. Data were repeated three times with similar results.
FIG. 54—Quantification of cytochrome c release from mitochondria following NMDA-toxicity. […] Values of optical density were quantified using Image J software and the data were normalized to the values of GAPDH in the cytosol.

A further experiment has as its system cortical neurons. As to the kind of experiment: MNNG-induced cell death in cortical neurons. Format: cell-based, mouse. The settings on record: MNNG 50 μM for 15 min. As for the experimental part:
as §1, §2

Consider 1 molecule from US9623039B2, “Treatment and prevention of pathological conditions using iduna related techniques and compositions” (VALTED, LLC, priority 2010, dated 2017).

B1: Iduna: novel NMDA-induced cell survival protein, PAR-dependent E3 ligase; 359 amino acids (protein)
chain: MEMAGCGEIDHSINMLPTNKKANESCSNTAPSLTVPECAICLQTCVHPVSLPCKHVFCYLCVKGASWLGKRCALCRQEIPEDFLDKPTLLSPEELKAASRGNGEYAWYYEGRNGWWQYDERTSRELEDAFSKGKKNTEMLIAGFLYVADLENMVQYRRNEHGRRRKIKRDIIDIPKKGVAGLRLDCDTNTVNLARESSADGADSGSAQTGASVQLAVPSSTRPLTSVDGQLTSPVTPSPDAGISLEDSFAHLQLSGDSIAERSHRGEGEEDHESPSSGRVPDTSVEETESDASSDSEDAPVVVAQHSLTQQRPLVPNGNQTVADQSDRSGTDRSVAGGGTMSVNVRSRRPDGQCTVIEV
On to B1, for which, in experiment [1], the “reduction of NMDA induced lesions” value is given as “approximately 80%”. In the experiment with primary cortical neurons, the cell death % came out at 23.0±1.8%. For the same molecule, the “cytochrome c translocation from mitochondria to the cytoplasm” value in the experiment on cytochrome c is on record as “reduction of cytochrome c translocation from mitochondria to the cytoplasm”. The “protection against MNNG-induced cell death” value in the experiment with cortical neurons is listed as “protects neuronal cultures against MNNG-induced cell death”.
